The first test concerns the target HLA class I molecule A24.02. As to the kind of experiment: pMHC-I dissociation half-life, 125I-b2m. As to conditions: remark: other sources report otherwise.
The molecule LSLMPAHWSI yielded a Stability (T1/2 (h)) of 0 h.
In the case of SQIMSLWGL, the Stability (T1/2 (h)) was 0 h.
Molecule SLMPAHWSI gave a Stability (T1/2 (h)) of 0.4 h.

The next test concerns the target HLA-A02.01 (human). As to the kind of experiment: pMHC-I dissociation half-life, 125I-b2m. As to conditions: remark: other sources report otherwise.
The molecule MNWRPILTI displayed a Stability (T1/2 (h)) of 3.8 h.

The next test concerns the target HLA class I molecule B08.01. As to the kind of experiment: pMHC-I dissociation half-life, 125I-b2m. The settings on record: remark: other sources report otherwise.
In the case of LSLMPAHWSI, the Stability (T1/2 (h)) turned out to be 0 h.
Still for that read-out and setting: the result for SQIMSLWGL reads 0 h.
SLGNHLCPL returned a Stability (T1/2 (h)) of 0.5 h.
The molecule YLGNHMNIA returned a Stability (T1/2 (h)) of 0 h.
Take YVMAYVMAG: the Stability (T1/2 (h)) came to 1.2 h.
Consider YMFLKAESKI, for which the Stability (T1/2 (h)) stood at 0.4 h.
In the case of SLMPAHWSI, the Stability (T1/2 (h)) came out at 0 h.
Turning to YVMAYVMAGV, the Stability (T1/2 (h)) came out at 0 h.
The same measure, in the same setting: under FELLSTPPL stands 0 h.

The target in another test is HLA class I molecule A03.01. As to the kind of experiment: pMHC-I dissociation half-life, 125I-b2m. As to conditions: remark: other sources report otherwise.
In turn, VMAGLGSPYV had a Stability (T1/2 (h)) of 0 h.
In turn, YMFLKAESKI returned a Stability (T1/2 (h)) of 0 h.
On the same count and under the same terms, the result for VLHECNSLYI reads 0 h.

Another test addresses HLA-A24.02 (human). As to the kind of experiment: pMHC-I dissociation half-life, 125I-b2m. As to conditions: remark: other sources report otherwise.
Take MNWRPILTI: the Stability (T1/2 (h)) came out at 0.2 h.

For the next test, the target named is HLA class I molecule B07.02. As to the kind of experiment: pMHC-I dissociation half-life, 125I-b2m. As to conditions: remark: other sources report otherwise.
As to SLGNHLCPL, the Stability (T1/2 (h)) is 0 h.
Regarding YVMAYVMAG, the Stability (T1/2 (h)) is 0 h.
SLMPAHWSI had a Stability (T1/2 (h)) of 0 h.
In turn, YVMAYVMAGV returned a Stability (T1/2 (h)) of 0 h.

The next test addresses HLA class I molecule A02.01. As to the kind of experiment: pMHC-I dissociation half-life, 125I-b2m. As to conditions: remark: other sources report otherwise.
The molecule LSLMPAHWSI showed a Stability (T1/2 (h)) of 0.4 h.
SQIMSLWGL displayed a Stability (T1/2 (h)) of 1 h.
VMAGLGSPYV displayed a Stability (T1/2 (h)) of 2.9 h.
For the molecule SLGNHLCPL, the Stability (T1/2 (h)) is 3.5 h.
With YLGNHMNIA, the Stability (T1/2 (h)) was 0.6 h.
The molecule YVMAYVMAG yielded a Stability (T1/2 (h)) of 2.5 h.
YMFLKAESKI gave a Stability (T1/2 (h)) of 0.6 h.
SLMPAHWSI had a Stability (T1/2 (h)) of 5 h.
YVMAYVMAGV gave a Stability (T1/2 (h)) of 20.9 h.
For FELLSTPPL, the Stability (T1/2 (h)) stood at 0 h.
Still for that read-out and setting: under VLHECNSLYI stands 5.1 h.

Another test has as its target HLA class I molecule A24.02. Kind of test: competition with radiolabeled reference peptide on purified MHC I. As to conditions: remark: other sources report otherwise.
With LSLMPAHWSI, the IC50 is 12400 nM.
As for SQIMSLWGL, the IC50 came out at 8520 nM.
Take SLMPAHWSI: the IC50 was 633 nM.

In the next test the target is HLA class I molecule B08.01. Described as above. As to conditions: remark: other sources report otherwise.
SLGNHLCPL gave a half-maximal inhibitory concentration (IC50) of 6 nM. This counts as single-digit nanomolar.
Turning to YLGNHMNIA, the IC50 worked out at 872 nM.
FELLSTPPL had an IC50 of 3180 nM.

The target of the next test is HLA class I molecule A03.01. Described as above. The settings on record: remark: other sources report otherwise.
On to VMAGLGSPYV, for which the IC50 is 11200 nM.
Molecule YMFLKAESKI yielded a 50% inhibitory concentration (IC50) of 21100 nM.
Molecule VLHECNSLYI displayed an IC50 of 10500 nM.

For a further test, the target named is HLA class I molecule B07.02. The description is as above. The settings on record: remark: other sources report otherwise.
As to SLGNHLCPL, the IC50 worked out at 2590 nM. That is a single-digit micromolar value.
YVMAYVMAG showed an IC50 of 170 nM.
As to YVMAYVMAGV, the IC50 is 52600 nM.

The target in the next test is HLA class I molecule A02.01. Described as above. As to conditions: remark: other sources report otherwise.
Molecule LSLMPAHWSI displayed an IC50 of 164 nM. This lies in the sub-micromolar range.
The molecule SQIMSLWGL returned an IC50 of 62 nM.
Take VMAGLGSPYV: the IC50 worked out at 102 nM.
Still for that read-out and setting: the result for YLGNHMNIA reads 117 nM; that for YVMAYVMAG, 11500 nM; that for SLMPAHWSI, 48 nM.
In turn, YVMAYVMAGV displayed an IC50 of 57 nM. The IC50 values of the last two molecules are within 1.5-fold of each other.
On the same count and under the same terms, the result for FELLSTPPL reads 225 nM.
As to VLHECNSLYI, the IC50 amounted to 10 nM.

In the next test the target is T1, HLA-A02.01 class I MHC molecule (prepared complex) (human). Kind of test: dissociation of peptide-MHC-I complex at 37 C, 125I-labelled b2m, scintillation. As to conditions: remark: other sources report otherwise.
QLIMQLMPF [EGFR_T790M peptide …] returned a Stability (half-life (hr.)) of 20.4 min.

The target of a further test is HLA-A24.02 class I MHC molecule (prepared complex) (human). The description is as above. As to conditions: remark: other sources report otherwise.
For the molecule QLIMQLMPF [EGFR_T790M peptide …], the Stability (half-life (hr.)) was determined as 22.1 min.

The target in a further test is T1, HLA-A02.01 class I MHC molecule …. As to the kind of experiment: displacement of radiolabeled reference peptide from class I MHC, gel filtration; 'Affinity (nM)'. The settings on record: remark: other sources report otherwise.
With QLIMQLMPF [EGFR_T790M peptide …], the IC50 was found to be 193 nM. This lies in the sub-micromolar range.

The next test deals with HLA-A02.01 (human). Kind of test: competition with radiolabeled reference peptide, purified MHC I. The settings on record: remark: other sources report otherwise.
As to MNWRPILTI, the IC50 came to 516 nM. That is a sub-micromolar value.

Another test deals with HLA-A24.02 (human). Described as above. As to conditions: remark: other sources report otherwise.
For MNWRPILTI, the IC50 came out at 6980 nM.

These data come from patent publication US20220282217A1, “COMPOSITIONS AND METHODS FOR PREPARING T CELL COMPOSITIONS AND USES THEREOF” (priority 2019, published 2022).
